Results reported in publication PMC2672303, “Dosage Effects of Cohesin Regulatory Factor PDS5 on Mammalian Development: Implications for Cohesinopathies”.

Target: T1, C-PDS5B-His wild type (C-terminal PDS5B, two AT-hooks) (Homo sapiens, UniProt Q9NTI5 1134-1446)
T1 sequence: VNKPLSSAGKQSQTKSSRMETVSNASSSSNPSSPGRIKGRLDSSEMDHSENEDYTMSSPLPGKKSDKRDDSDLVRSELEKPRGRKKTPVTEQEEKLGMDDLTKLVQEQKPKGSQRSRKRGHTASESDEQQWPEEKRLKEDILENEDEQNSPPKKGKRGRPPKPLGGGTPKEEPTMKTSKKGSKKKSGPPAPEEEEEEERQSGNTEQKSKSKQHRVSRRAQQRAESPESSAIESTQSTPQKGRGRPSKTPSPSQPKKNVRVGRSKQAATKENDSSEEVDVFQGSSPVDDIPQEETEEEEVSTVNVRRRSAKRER
Assay: EMSA; 5-40 ng protein; EMSA: 20 ng protein (5-40 ng in Fig. 7E) with 2.25 pmol 32P probe, 25 C, 5 min, 6% polyacrylamide gel; protein dialyzed in 50 mM Tris pH 7.5, 0.5 mM EDTA, 100 mM NaCl, 10% glycerol, 1 mM DTT; binding buffer as in cited work
Details: protein: recombinant; tags: N-terminal HA; C-terminal 6xHis; label: 32P; blunt

B1: T5-8-T5 probe (dsDNA)
DNA 1: GGACTCCAGGTCCAGGACCGCTTTTTGCGCGCGCTTTTTGCGGGAGGTCCAGCTGTCCACCTCC
DNA 2: GGAGGTGGACAGCTGGACCTCCCGCAAAAAGCGCGCGCAAAAAGCGGTCCTGGACCTGGAGTCC
  binding result: binds
